From patent US20100158926A1
Numbering of substitutions follows the chain as printed. Values joined by “and” are separate entries in the source; they are usually repeats but may differ in a detail not shown here. Equal entries are not always repeated.

B1: monoclonal antibody 1.20 (antibody, V domains shown)
VH: QLQLQESGPGLVKPSETLSLTCTVSGGSISSSNYYWGWIRQPPGKGLEWIGTIYYTGSTYYNPSLKSRVTISVDTSKNQFSLKLSSVTAADTAVYYCARHHWVFDYWGQGTLVTVSS
VL: DIQMTQSPSSVSASVGDRVTITCRASQGISSWLAWYQQKPGKAPKLLIYAASSLQSGVPSRFSGSGSGTDFTLTISSLQPEDFATYYCQRTNSFPRTFGQGTKVEIK
B2: monoclonal antibody 1.18.1 (antibody, V domains shown)
VH: QVQLVESGGGVVQPGRSLRLSCAASGFTFSSYGMHWVRQAPGKGLEWVAVIWYDRSNKYYADSVKGRFTISRDNSKNTLYLQMDSLRAEDTAVYYCAGGRSRGAFDYWGQGTLVTVSS
VL: DIQMTQSPSSLSASVGDRVTITCRASQGIRNYLAWFQQKPGKAPKSLIYAASSLQSGVPSTFSGSGSGTHFTLTISSLQPEDFASYFCQQYEIYPLTFGGGTKVEIK
B3: monoclonal antibody 1.96 (antibody, V domains shown)
VH: EVQLVESGGGLVQPGGSLRLSCAASGFTFSSYWMSWVRQAPGKGLEWVANIKQDGSEKYYVDSVKGRFTISRDNAKNSLYLQMNSLRAEDTAVYYCARWGVFGSGSYYIPFDYWGQGTLVTVSS
VL: DIQMTQSPSSLSASVGDRVTITCRASHSITRYINWYQQKPGKAPNLLIYAASSLQSGVPSRFSGSGSGTDFTLTISSPQPEDFATYYCQQSYSSPPITFGQGTRLEIK
B4: monoclonal antibody 1.39 (antibody, V domains shown)
VH: B1 VH with N33T, T56S, S85N
VL: EIVLTQSPDFLSVTPKEKVTITCRASQIIGSSLHWYQQKPDQSPKLLIKYASQSFSGVPSRFSGSGSGTDFTLTLNSLEAEDAATYYCHQSTILPWTFGQGTKVEIK
B5: monoclonal antibody 1.14.1 (antibody, V domains shown)
VH: B1 VH with G27D, S32F, N33I, T56S, S85R, L112Q
VL: B4 VL with E1D, S7F, L11Q, I28V, L75I, A80V, I106V
B6: monoclonal antibody 1.100.1 (antibody, V domains shown)
VH: B1 VH with S28F, N33S, T56S, S58T, P63S, K77Q
VL: B4 VL with I2V, L11Q, V19I, S31T, Q38K, D70E, L75I, A83T, I93N
B7: monoclonal antibody 1.43 (antibody, V domains shown)
VH: QVQLVESGGGLVKPGGSLRLSCAASGFTFSDYYMNWIRQAPGKGLEWVSYISSSGSIIYYADSVKGRFTISRDNAKNSLYLQMNSLRAEDTAVYYCAREGRIAARGMDVWGQGTTVTVSS
VL: DIQMTQSPSSLSASVGDRVSITCRPSQSFSRYINWYQQKPGKAPKLLIHAASSLVGGVPSRFSGSGSGTDFTLTISSLQPEDFATYYCQQTYSNPPITFGQGTRLEMK

Legend:
[1] = biological target: human ErbB2, full length, on cells (B300.19/hErbB2 clone #44; MCF7; BT474; SKBR3) (human)
[2] = biological target: human ErbB2, full length, on cells (B300.19/hErbB2 clone #44; MCF7; BT474; SKBR3) (human); remark: listed apart in the source
[3] = biological target: human ErbB2, full length, on cells (B300.19/hErbB2 clone #44; MCF7; BT474; SKBR3) (human); remark: listed apart in the source
[4] = biological target: human ErbB2, full length, on cells (B300.19/hErbB2 clone #44; MCF7; BT474; SKBR3) (human); remark: listed apart in the source
[5] = biological target: human ErbB2, full length, on cells (B300.19/hErbB2 clone #44; MCF7; BT474; SKBR3) (human); remark: listed apart in the source
[6] = biological target: human ErbB2 ECD-myc/His fusion protein (human); assay: SPR, high resolution Biacore T100; mAb captured on goat anti-human IgG, hHer-2(ECD)cMyc injected; 1:1 fit
[7] = biological target: human ErbB2, full length, on cells (B300.19/hErbB2 clone #44; MCF7; BT474; SKBR3) (human); remark: listed apart in the source
[8] = biological target: human ErbB2 ECD-myc/His fusion protein (human); assay: limited antigen ELISA, 31 ng/ml antigen coated, supernatant 1:25, OD 450 nm
[9] = biological target: human ErbB2 ECD-myc/His fusion protein (human); assay: SPR, medium resolution Biacore 2000; mAb captured on goat anti-human IgG, ErbB2(ECD)-cMyc/His injected; 1:1 fit

Molecule | EC50 (ng/ml) n1, inhibition of Heregulin-induced ErbB2 phosphorylation in MCF7 cells [1] | EC50 (ng/ml) n2, inhibition of Heregulin-induced ErbB2 phosphorylation in MCF7 cells [1] | % Inhibition @10 µg/ml, Heregulin-induced MCF7 cell proliferation [2] | EC50 (ng/ml), inhibition of Heregulin-induced MCF7 cell proliferation [2] | N1 % Inhibition @40 µg/ml, BT474 cell proliferation [3] | N1 EC50 (ng/ml), inhibition of BT474 cell proliferation [3] | N2 EC50 (ng/ml), inhibition of BT474 cell proliferation [3] | EC50 (ng/ml), inhibition of SKBR3 cell proliferation [4] | % Inhibition @10 µg/ml (n1), ErbB2 phosphorylation in BT474 cells at 48 hours [5] | Kd [6] | % inhibition @36 µg/ml, SKBR3 cell proliferation [4] | LA at 31 ng/ml [8] | Kd [9] | koff [9] | kon [9] | other results
chimeric anti-hErbB2 antibody 2C4 | 43.6 ng/mL | 14.6 ng/mL | 90% | 404 ng/mL | -9% | > 40000 ng/mL | 4750 ng/mL | > 36000 ng/mL | 10% | 3.2 nM |  |  |  |  |  | 
Herceptin® (antibody) | > 10000 ng/mL | > 10000 ng/mL |  | > 10000 ng/mL |  |  |  |  | 5% |  |  |  |  |  |  | 
hIgG1 control antibody |  |  |  |  | -2% | > 40000 ng/mL | > 40000 ng/mL | > 36000 ng/mL |  |  | 2% |  |  |  |  | 
B1 | 15.5 ng/mL | 17.4 ng/mL | 100% | 770 ng/mL | 40% | 85.3 ng/mL | 12.8 ng/mL | 25.2 ng/mL | 21% |  | 49% | 2.84 OD and 1.77 OD | 3.6 nM | 0.000344 s⁻¹ | 95000 M⁻¹ s⁻¹ | 24 hr pTyr inhibition % (line 1*19) [7]: 97%; 24 hr pTyr inhibition % (line 1*20) [7]: 96%
B2 | 4.2 ng/mL | 10.8 ng/mL | 94% | 415 ng/mL | 34% | 38.1 ng/mL | 28.2 ng/mL | 26.3 ng/mL | 24% |  | 46% | 3.03 OD | 3 nM | 0.000302 s⁻¹ | 100000 M⁻¹ s⁻¹ | 24 hr pTyr inhibition % (line 1*18) [7]: 96%
B3 | 28.8 ng/mL | 34 ng/mL | 98% | 2830 ng/mL | 35% | 131 ng/mL | 66.3 ng/mL | 41.7 ng/mL | 37% | 11.6 nM | 43% |  | 2.6 nM | 0.000273 s⁻¹ | 103000 M⁻¹ s⁻¹ | 24 hr pTyr inhibition % (line 1*96) [7]: 99%; 24 hr pTyr inhibition % (line 1*99) [7]: 99%; 24 hr pTyr inhibition % (line 1*104) [7]: 73%; 24 hr pTyr inhibition % (line 1*107) [7]: 82%; 24 hr pTyr inhibition % (line 1*128) [7]: 98%; koff [6]: 0.000194 s⁻¹; kon [6]: 16800 M⁻¹ s⁻¹
B4 | 46.9 ng/mL | 26.3 ng/mL | 89% | 479 ng/mL | 29% | 156 ng/mL | 42.3 ng/mL | 68.9 ng/mL | 37% | 13.4 nM | 41% | 2.57 OD | 2 nM | 0.000236 s⁻¹ | 115000 M⁻¹ s⁻¹ | 24 hr pTyr inhibition % (line 1*39) [7]: 99%; koff [6]: 0.000214 s⁻¹; kon [6]: 16000 M⁻¹ s⁻¹
B5 | 33.7 ng/mL | 22.9 ng/mL | 96% | 640 ng/mL | 38% | 136 ng/mL | 63 ng/mL | 35.7 ng/mL | 37% |  | 52% | 3.99 OD | 2.5 nM | 0.000256 s⁻¹ | 102000 M⁻¹ s⁻¹ | 24 hr pTyr inhibition % (line 1*14) [7]: 100%
B6 | 39.9 ng/mL | 33.7 ng/mL | 95% | 2040 ng/mL | 35% | 169 ng/mL | 91.1 ng/mL | 61.3 ng/mL | 37% |  | 54% | 3.54 OD | 2.9 nM | 0.000301 s⁻¹ | 104000 M⁻¹ s⁻¹ | 24 hr pTyr inhibition % (line 1*100) [7]: 95%
B7 | > 10000 ng/mL | > 10000 ng/mL | 53% | 10000 ng/mL |  |  |  |  |  |  |  | 3.2 OD and 3.57 OD |  |  |  | 24 hr pTyr inhibition % (line 1*41) [7]: 86%; 24 hr pTyr inhibition % (line 1*43) [7]: 82%
